# Target: the molecule itself
# Assay: non-reducing SDS-PAGE and western blot
protein,measurement,value
"GST fusion of the extracellular domain of IGPR-1 (GST-E-IGPR-1) (domain or fragment, human, UniProt Q96BF3 23-150, looked up) LSVQQGPNLLQVRQGSQATLVCQVDQATAWERLRVKWTKDGAILCQPYITNGSLSLGVCGPQGRLSWQAPSHLTLQLDPVSLNHSGAYVCWAAVEIPELEEAEGNITRLFVDPDDPTQNRNRIASFPG",binding result,binds

# From paper PMC5138093 (Journal of molecular biology, 2016)
